# Assay results taken from the supplement of paper PMC10724198.
# ± gives the standard deviation of the averaged measurements.
# System: Saccharomyces cerevisiae
# Assay: protein stability index of tFT-peptide fusion (C-terminal peptide) (PSI (0-1 scale)); higher = more stable (slower turnover)
# Settings: temperature: 30 C
# Method: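 MPS profiling in S. cerevisiae of the yeast C-terminome library: the last 12 aa of each annotated ORF are fused to the C-terminus of a sfGFP-mCherry timer, after a GGGS linker. Cells are FACS-sorted into 8 mCherry/sfGFP bins and deep-sequenced. PSI runs from 0 (unstable) to 1 (stable); wild type and das1Δ backgrounds, two technical replicates each.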
# [1] = genetic background: das1 deletion
Sequence,protein stability index [1],protein stability index (genetic background: wild type)
GESISMLFEHGW [PRS5 C-terminal 12 aa],0.719 ± 0.012,0.7458 ± 0.0051
RSWDEFIGFKAY [CPA2 C-terminal 12 aa],0.745 ± 0.03,0.615 ± 0.041
YINDISRTWNAN [MNT3 C-terminal 12 aa],0.68 ± 0.0086,0.679 ± 0.043
EIRKRRASSLKA [RPS6A C-terminal 12 aa],0.649 ± 0.021,0.646 ± 0.0092
NSSGEFQLESLF [MRI1 C-terminal 12 aa],0.707 ± 0.023,0.698 ± 0.051
LARTDVNFMPWF [TRA1 C-terminal 12 aa],0.72 ± 0.0086,0.744 ± 0.031
NVKSSTQEKDSK [SGN1 C-terminal 12 aa],0.706 ± 0.014,0.721 ± 0.053
DDIANNQSICCV [YPT11 C-terminal 12 aa],0.649 ± 0.02,0.649 ± 0.018
NSAFSSASVTKP [YFR057W C-terminal 12 aa],0.711 ± 0.0094,0.682 ± 0.023
QKARDFSRSVVH [ARO2 C-terminal 12 aa],0.696 ± 0.00098,0.698 ± 0.021
EEEAGYSDVEME [UTP5 C-terminal 12 aa],0.6936 ± 0.005,0.698 ± 0.013
VMSLYNLACKYI [SAM37 C-terminal 12 aa],0.797 ± 0.013,0.577 ± 0.056
NTGFDPHLEDGM [TBF1 C-terminal 12 aa],0.708 ± 0.032,0.691 ± 0.039
DEWRAKYGGQQV [MES1 C-terminal 12 aa],0.675 ± 0.037,0.676 ± 0.029
VSKTYEEHIETV [JEN1 C-terminal 12 aa],0.688 ± 0.023,0.692 ± 0.013
IYANRDKAKKNM [OPI3 C-terminal 12 aa],0.681 ± 0.021,0.499 ± 0.03
YKELVKNIESKL [CIT2 C-terminal 12 aa],0.752 ± 0.024,0.837 ± 0.015
VHLEKKKDEDKK [UBX7 C-terminal 12 aa],0.67376 ± 4e-05,0.668 ± 0.021
SSTTEETILVRK [RKM1 C-terminal 12 aa],0.689 ± 0.023,0.7025 ± 0.0051
AIFTAFTQVVLI [TOH1 C-terminal 12 aa],0.4858 ± 0.0044,0.4983 ± 0.00094
TNWGQHKTVQNT [PPE1 C-terminal 12 aa],0.698 ± 0.024,0.713 ± 0.019

Sequence,protein stability index [1],protein stability index (genetic background: wild type)
LQLFVNLGCPLS [YDR455C C-terminal 12 aa],0.727 ± 0.028,0.683 ± 0.019
LRVEWSKPKVKE [TIF35 C-terminal 12 aa],0.699 ± 0.015,0.711 ± 0.044
KETDKVNDENSI [MLP1 C-terminal 12 aa],0.708 ± 0.0044,0.756 ± 0.059
KKSKNRNTSLRP [SIP5 C-terminal 12 aa],0.726 ± 0.02,0.689 ± 0.02
PICIVGNFIPLS [RDS2 C-terminal 12 aa],0.689 ± 0.024,0.722 ± 0.024
VFNDIFRLNYSA [NTF2 C-terminal 12 aa],0.7108 ± 0.0032,0.504 ± 0.0084
WYEDEDSGDDDM [DML1 C-terminal 12 aa],0.698 ± 0.012,0.674 ± 0.014
EQQNFEKCNEYI [NPL6 C-terminal 12 aa],0.691 ± 0.01,0.655 ± 0.007
SFPVVEPMGGST [BDS1 C-terminal 12 aa],0.69 ± 0.012,0.727 ± 0.014
VEIPTVESTKSG [RNA14 C-terminal 12 aa],0.696 ± 0.021,0.7544 ± 0.0014
KGMKRLDYRFIH [SOA1 C-terminal 12 aa],0.688 ± 0.029,0.234 ± 0.012
MQHRGWSSLMSL [YJR146W C-terminal 12 aa],0.7031 ± 0.0016,0.6548 ± 0.0047
TSDQKNKRTQFS [RPB9 C-terminal 12 aa],0.6969 ± 0.0066,0.667 ± 0.07
LKIVEKIIASEQ [YLR419W C-terminal 12 aa],0.683 ± 0.013,0.711 ± 0.029
DQAKDASPNAKK [RGM1 C-terminal 12 aa],0.694 ± 0.0073,0.673 ± 0.011
SVLKRVRKLFGE [VMA7 C-terminal 12 aa],0.712 ± 0.004,0.684 ± 0.02
KNRFSNGRWGRR [SLD2 C-terminal 12 aa],0.701 ± 0.036,0.72 ± 0.015
TIEEVKIPGLDI [MRPL50 C-terminal 12 aa],0.701 ± 0.0088,0.711 ± 0.0074
GSVPANWNWSSF [PIB2 C-terminal 12 aa],0.739 ± 0.03,0.699 ± 0.048
MKLFEENKKEEE [PET111 C-terminal 12 aa],0.722 ± 0.014,0.684 ± 0.035
IFVAILLRYAKI [PCA1 C-terminal 12 aa],0.243 ± 0.013,0.228 ± 0.006

Sequence,protein stability index [1],protein stability index (genetic background: wild type)
SWETKLKQNILE [CSN9 C-terminal 12 aa],0.7156 ± 0.0054,0.6441 ± 0.0042
PIQQSIAHINPP [LDS2 C-terminal 12 aa],0.718 ± 0.0075,0.6902 ± 0.0066
YDRDAKNDRSTT [YHL017W C-terminal 12 aa],0.705 ± 0.023,0.665 ± 0.061
DNFMNNSDIFQN [TGL5 C-terminal 12 aa],0.741 ± 0.027,0.686 ± 0.0082
LDLQNQNKKNLW [PIN4 C-terminal 12 aa],0.707 ± 0.02,0.707 ± 0.023
LVYATELIGSGS [ICE2 C-terminal 12 aa],0.7058 ± 0.0022,0.7 ± 0.073
PHSQNEILQYYL [NAT1 C-terminal 12 aa],0.705 ± 0.0095,0.722 ± 0.065
QLISTPIKDNEH [KIC1 C-terminal 12 aa],0.693 ± 0.018,0.682 ± 0.031
GRENGDVNIWAV [MDV1 C-terminal 12 aa],0.702 ± 0.013,0.715 ± 0.0099
TVSLPSRYSRYN [ALR2 C-terminal 12 aa],0.6976 ± 0.0014,0.684 ± 0.033
ILWKNGIYIAHI [HUR1 C-terminal 12 aa],0.659 ± 0.01,0.6113 ± 0.0034
CLMVSFLLLFGV [OLI1 C-terminal 12 aa],0.315 ± 0.0097,0.3088 ± 0.0016
IGRENENENEDD [POP5 C-terminal 12 aa],0.688 ± 0.037,0.704 ± 0.058
PFPQKHRDNHLV [YOR053W C-terminal 12 aa],0.701 ± 0.025,0.711 ± 0.012
VVTYTLKVDLKV [YLR152C C-terminal 12 aa],0.469 ± 0.025,0.491 ± 0.012
EESEKQLYTVLK [CUS1 C-terminal 12 aa],0.688 ± 0.0087,0.676 ± 0.01
MFNASSDIFQRN [YML083C C-terminal 12 aa],0.703 ± 0.016,0.7014 ± 0.0067
STHIDHDKFSFF [CDC8 C-terminal 12 aa],0.7087 ± 0.0024,0.694 ± 0.021
DKLSWSVRWEPR [URA4 C-terminal 12 aa],0.712 ± 0.021,0.721 ± 0.022
LTLIPILFGKLQ [YNL203C C-terminal 12 aa],0.6875 ± 0.0045,0.354 ± 0.0097
HTSVKALQRMTW [CTH1 C-terminal 12 aa],0.7271 ± 0.0051,0.6829 ± 0.0024

Sequence,protein stability index [1],protein stability index (genetic background: wild type)
ESEYREQQQNPQ [SHQ1 C-terminal 12 aa],0.688 ± 0.017,0.686 ± 0.085
AVNALNEAMDKL [BNA5 C-terminal 12 aa],0.677 ± 0.015,0.696 ± 0.11
TAFLNKVYKRSK [ERG20 C-terminal 12 aa],0.692 ± 0.007,0.693 ± 0.043
DLLDMIDSLGKL [FSH3 C-terminal 12 aa],0.688 ± 0.023,0.694 ± 0.056
YEEFALRSGSSS [AFG2 C-terminal 12 aa],0.715 ± 0.022,0.676 ± 0.014
LCFSKDIQLDFQ [FIG4 C-terminal 12 aa],0.714 ± 0.013,0.672 ± 0.043
TIAAGKISEITQ [HBS1 C-terminal 12 aa],0.7292 ± 0.0066,0.697 ± 0.01
AQNFILFHDYLH [YLR365W C-terminal 12 aa],0.698 ± 0.012,0.711 ± 0.032
NELSLRPATERI [YBL100W-A C-terminal 12 aa],0.6853 ± 0.0012,0.711 ± 0.015
TPSEDDDGAVEI [LSM3 C-terminal 12 aa],0.688 ± 0.0068,0.749 ± 0.062
NGRYVDTDFDSM [LCB5 C-terminal 12 aa],0.707 ± 0.02,0.659 ± 0.013
KNFYNRHTSPQL [YHL008C C-terminal 12 aa],0.737 ± 0.03,0.679 ± 0.02
QQFYKDVYAMQD [THI2 C-terminal 12 aa],0.74 ± 0.018,0.6413 ± 0.001
NFAMLGLGPNWE [YUH1 C-terminal 12 aa],0.722 ± 0.0065,0.725 ± 0.057
EAAKYFREQYKN [MET6 C-terminal 12 aa],0.7045 ± 0.0028,0.7172 ± 0.0068
EHTMLAKAQGHD [XPT1 C-terminal 12 aa],0.71 ± 0.022,0.6558 ± 0.0011
YAVKDKIETLLI [SNU13 C-terminal 12 aa],0.7019 ± 0.0055,0.725 ± 0.12
FPRNLAKSVTVE [GFA1 C-terminal 12 aa],0.599 ± 0.0094,0.593 ± 0.011
GIRRIVHEPLGI [MTE1 C-terminal 12 aa],0.733 ± 0.016,0.729 ± 0.045
YWILKSNPTNES [YNL092W C-terminal 12 aa],0.742 ± 0.018,0.7246 ± 0.0071
